Among the data in PMC6422423, “Constitutively active BRS3 is a genuinely orphan GPCR in placental mammals” (PLoS Biology, 2019) are IC50 and Ki values, retold here.

Test [1] deals with chicken bombesin receptor subtype-3 (chicken (Gallus gallus)). Put plainly: radioligand binding; displacement of 50 pM [125I]-Tyr42-GRP by unlabeled peptide on disaggregated transfected HEK293 cells; 1 h at 21°C; 24.5 mM HEPES pH 7.4, 98 mM NaCl; bound tracer separated by centrifugation.
Test [2] addresses spotted gar bombesin receptor subtype-3 (spotted gar (Lepisosteus oculatus)). Described as above.
Test [3] has as its target turtle bombesin receptor subtype-3 (turtle (Chrysemys picta)). The test is described as above.
Test [4] addresses chicken bombesin receptor subtype-3 (chicken (Gallus gallus)). Put plainly: radioligand binding; displacement of 50 pM [125I]-Tyr-NMB by unlabeled peptide on disaggregated transfected HEK293 cells; 1 h at 21°C; 24.5 mM HEPES pH 7.4, 98 mM NaCl; bound tracer separated by centrifugation.
Test [5] concerns the target spotted gar bombesin receptor subtype-3 (spotted gar (Lepisosteus oculatus)). The description is as above.
Test [6] concerns the target turtle bombesin receptor subtype-3 (turtle (Chrysemys picta)). Described as above.
Test [7] addresses aardvark bombesin receptor subtype-3 (aardvark (Orycteropus afer)). Described as above.

Sequence of spotted gar bombesin receptor subtype-3 (spotted gar (Lepisosteus oculatus)) (main, as listed by the source): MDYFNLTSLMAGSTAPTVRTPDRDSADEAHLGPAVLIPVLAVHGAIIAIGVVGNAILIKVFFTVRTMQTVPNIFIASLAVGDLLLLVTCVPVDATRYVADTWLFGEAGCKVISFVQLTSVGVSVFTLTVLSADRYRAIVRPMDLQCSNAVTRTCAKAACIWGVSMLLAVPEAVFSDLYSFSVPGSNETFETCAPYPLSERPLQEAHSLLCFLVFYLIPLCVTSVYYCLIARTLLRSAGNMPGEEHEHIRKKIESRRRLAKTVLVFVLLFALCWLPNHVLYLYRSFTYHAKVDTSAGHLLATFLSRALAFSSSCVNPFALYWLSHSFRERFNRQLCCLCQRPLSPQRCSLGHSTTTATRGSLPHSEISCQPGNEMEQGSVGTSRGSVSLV
Sequence of turtle bombesin receptor subtype-3 (turtle (Chrysemys picta)) (main, as listed by the source): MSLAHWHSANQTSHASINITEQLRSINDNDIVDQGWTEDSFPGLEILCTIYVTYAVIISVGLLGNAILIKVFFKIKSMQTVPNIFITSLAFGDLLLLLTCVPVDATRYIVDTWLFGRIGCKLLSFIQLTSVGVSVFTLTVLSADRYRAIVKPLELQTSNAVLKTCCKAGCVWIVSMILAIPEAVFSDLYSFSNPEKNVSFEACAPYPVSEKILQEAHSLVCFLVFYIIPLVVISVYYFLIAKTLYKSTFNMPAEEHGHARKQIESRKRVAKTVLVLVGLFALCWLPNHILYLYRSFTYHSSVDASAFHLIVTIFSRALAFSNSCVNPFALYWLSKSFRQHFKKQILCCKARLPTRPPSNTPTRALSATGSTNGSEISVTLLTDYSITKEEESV
Sequence of aardvark bombesin receptor subtype-3 (aardvark (Orycteropus afer)) (P32247 other isoform, or with tags, fused parts or gaps): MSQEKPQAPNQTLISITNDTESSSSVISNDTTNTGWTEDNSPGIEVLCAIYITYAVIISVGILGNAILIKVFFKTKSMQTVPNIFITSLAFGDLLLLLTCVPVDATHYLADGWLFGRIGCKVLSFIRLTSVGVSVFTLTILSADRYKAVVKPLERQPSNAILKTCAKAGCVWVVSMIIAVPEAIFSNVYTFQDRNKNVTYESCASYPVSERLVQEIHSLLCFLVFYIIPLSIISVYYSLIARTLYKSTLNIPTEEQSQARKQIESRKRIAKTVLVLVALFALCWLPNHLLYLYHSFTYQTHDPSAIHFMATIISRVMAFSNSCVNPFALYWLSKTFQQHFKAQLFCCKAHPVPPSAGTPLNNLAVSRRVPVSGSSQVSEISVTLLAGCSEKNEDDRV

As a reminder, the IC50 is the concentration that gives 50% inhibition. Read a high IC50 as weaker potency. What is called Ki is a dissociation constant, usually derived from enzyme kinetics or from competition with a known ligand. Higher therefore signals weaker binding. In the case of “neuromedin B, unlabeled ligand peptide of the radioligand binding assays”, the IC50 in test [1] was determined as 1.35 nM; in test [2], 1.74 nM; in test [3], 1.14 nM; in test [4], 2.26 nM; in test [5], 2.65 nM; in test [6], 2.82 nM. For the same substance, the Ki in test [7] was over 1000 nM.
